From patent US20150344570A1 (published 2015)

Key:
[1] = molecular target: T1, FcγRIIa H (FcγRIIa, allotype with His at position 131), extracellular domain with C-terminal His tag (human, UniProt P12318 34-217); assay: SPR (Biacore); He/Con_2aH divided by He/Con_2b (FcγRIIb)
T1 construct: extracellular domain; also called FcgRIIa H; 2aH; not shown: His tag at the C terminus
T1 sequence (looked up): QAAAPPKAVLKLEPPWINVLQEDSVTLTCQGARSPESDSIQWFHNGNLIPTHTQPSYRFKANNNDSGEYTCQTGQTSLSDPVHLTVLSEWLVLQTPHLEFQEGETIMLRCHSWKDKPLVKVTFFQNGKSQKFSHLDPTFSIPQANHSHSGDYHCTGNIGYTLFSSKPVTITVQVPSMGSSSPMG

[2] = molecular target: T1, FcγRIIa H (FcγRIIa, allotype with His …); assay: SPR (Biacore), relative binding vs GpH7-A5/GpH7-B3/GpL16-k0
[3] = molecular target: T2, FcγRIIb, extracellular domain with C-terminal His tag (human, UniProt P31994 43-217); assay: as above
T2 construct: extracellular domain; also called FcgRIIb; 2b; not shown: His tag at the C terminus
T2 sequence (looked up): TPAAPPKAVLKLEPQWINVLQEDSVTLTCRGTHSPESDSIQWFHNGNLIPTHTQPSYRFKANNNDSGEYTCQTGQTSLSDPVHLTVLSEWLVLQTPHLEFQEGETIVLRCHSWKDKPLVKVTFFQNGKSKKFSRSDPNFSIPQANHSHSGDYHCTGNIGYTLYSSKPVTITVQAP

[4] = molecular target: T3, FcγRIIa H (human FcγRIIa, allotype H131, extracellular domain with C-terminal His tag) (human, UniProt P12318 34-217); assay: SPR (Biacore T100), antibody captured on antigen-peptide chip, FcγRIIa H as analyte; relative binding
T3 construct: extracellular domain; Soluble extracellular domain expressed in FreeStyle293 cells; used as analyte in Biacore; also called FcgRIIa H; FcγRIIa type H; not shown: His tag attached to the C terminus
T3 sequence (looked up): T1 sequence (looked up)
Procedure: Analysis of interaction between objective antibody and the FcγR was carried out using Biacore T100 (GE Healthcare). HBS-EP+ (GE Healthcare) was used as the running buffer, and the measurement temperature was set to 25° C. Chips produced by immobilizing the antigen peptide by the amine coupling method to a Series S Sencor Chip CM5 (GE Healthcare), or alternatively, chips produced by allowing preliminarily biotinylated antigen peptides to interact with and immobilize onto a Series S Sensor Chip SA (certified) (GE Healthcare) were used. Antibodies of interest were captured onto an antigen peptide-immobilized chip, and allowed to interact to each FcγR diluted with running buffer. To regenerate and repeatedly use the chip, the antibodies captured on the chip were washed off by reacting 10 mM glycine-HCl, pH 1.5.

B1: GpH7-A5/GpH7-B3 variant N325_04F/GpL16-k0 (antibody, human IgG1, kappa)
heavy 1: not shown
heavy 2: not shown
light: DIVMTQSPLSLPVTPGEPASISCQASESLVHSNRNTYLHWYLQKPGQSPQLLIYKVSNRFSGVPDRFSGSGSGTDFTLKISRVEAEDVGVYYCSQNTHVPPTFGQGTKVEIERTVAAPSVFIFPPSDEQLKSGTASVVCLLNNFYPREAKVQWKVDNALQSGNSQESVTEQDSKDSTYSLSSTLTLSKADYEKHKVYACEVTHQGLSSPVTKSFNRGEC
notes: Heterodimerized anti-glypican-3 IgG1; mutation in one H chain only; also called He Ab
- He_2aH/2b (IIaH/IIb) [1]: 0.23 ratio
- He/Con_2aH [2]: 33.4 % of HeCon Ab (=100)
- He/Con_2b [3]: 143 % of HeCon Ab (=100)

B2: GpH7-B3 variant T335_02A/GpL16-k0 (homodimerized antibody, Ho Ab) (antibody, human IgG1, kappa)
heavy: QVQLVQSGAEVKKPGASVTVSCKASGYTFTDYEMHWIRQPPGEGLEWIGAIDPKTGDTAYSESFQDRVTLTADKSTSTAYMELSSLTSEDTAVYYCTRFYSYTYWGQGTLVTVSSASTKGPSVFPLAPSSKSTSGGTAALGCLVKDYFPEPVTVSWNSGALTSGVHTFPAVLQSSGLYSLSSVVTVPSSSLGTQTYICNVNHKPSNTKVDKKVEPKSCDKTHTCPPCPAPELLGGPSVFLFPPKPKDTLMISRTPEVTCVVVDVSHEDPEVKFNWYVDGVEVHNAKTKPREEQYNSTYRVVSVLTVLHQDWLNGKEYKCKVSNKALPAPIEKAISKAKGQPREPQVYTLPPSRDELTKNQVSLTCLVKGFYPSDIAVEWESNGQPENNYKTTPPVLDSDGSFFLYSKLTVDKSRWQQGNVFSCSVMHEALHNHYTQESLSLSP
light: B1 light
notes: Anti-glypican-3 IgG1 (G1d with K439E); the alteration stands in both H chains; also called T335_02A Ho Ab; T335A in both H chains
- Ho/Con_2aH [4]: 103 relative binding activity (control homodimerized antibody GpH7-B3/GpL16-k0 = 100)

B3: GpH7-A5/GpH7-B3 variant T335_02A/GpL16-k0 (heterodimerized antibody, He Ab) (antibody, human IgG1, kappa)
heavy 1: not shown
heavy 2: not shown
light: B1 light
notes: Anti-glypican-3 IgG1 heterodimer (D356K/H435R chain GpH7-A5 with K439E chain GpH7-B3 variant); the alteration stands in one H chain only; EU numbering; also called T335_02A He Ab; T335A in one H chain
- He/Con_2aH [4]: 101 relative binding activity (control heterodimerized antibody GpH7-A5/GpH7-B3/GpL16-k0 = 100)

B4: GpH7-B3 variant T335_04F/GpL16-k0 (homodimerized antibody, Ho Ab) (antibody, human IgG1, kappa)
heavy: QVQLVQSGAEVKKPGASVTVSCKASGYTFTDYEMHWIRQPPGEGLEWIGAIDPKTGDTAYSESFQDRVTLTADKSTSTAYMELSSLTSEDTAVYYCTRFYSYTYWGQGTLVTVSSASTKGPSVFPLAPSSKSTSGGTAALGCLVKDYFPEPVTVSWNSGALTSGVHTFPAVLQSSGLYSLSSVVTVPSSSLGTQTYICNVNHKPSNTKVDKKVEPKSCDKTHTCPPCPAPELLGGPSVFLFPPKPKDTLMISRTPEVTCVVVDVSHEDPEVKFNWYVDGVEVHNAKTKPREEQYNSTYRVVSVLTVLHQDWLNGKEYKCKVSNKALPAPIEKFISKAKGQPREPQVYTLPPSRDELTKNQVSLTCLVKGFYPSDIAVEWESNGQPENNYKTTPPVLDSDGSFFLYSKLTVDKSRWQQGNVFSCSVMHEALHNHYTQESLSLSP
light: B1 light
notes: Anti-glypican-3 IgG1 (G1d with K439E); the alteration stands in both H chains; EU numbering; also called T335_04F Ho Ab; T335F in both H chains
- Ho/Con_2aH [4]: 104 relative binding activity (control homodimerized antibody GpH7-B3/GpL16-k0 = 100)

B5: GpH7-A5/GpH7-B3 variant T335_09D/GpL16-k0 (heterodimerized antibody, He Ab) (antibody, human IgG1, kappa)
heavy 1: not shown
heavy 2: not shown
light: B1 light
notes: Anti-glypican-3 IgG1 heterodimer; the alteration stands in one H chain only; EU numbering; also called T335_09D He Ab; T335D in one H chain
- He/Con_2aH [4]: 107 relative binding activity (control heterodimerized antibody GpH7-A5/GpH7-B3/GpL16-k0 = 100)

B6: GpH7-B3 variant Y300_07I/GpL16-k0 (homodimerized antibody, Ho Ab) (antibody, human IgG1, kappa)
heavy: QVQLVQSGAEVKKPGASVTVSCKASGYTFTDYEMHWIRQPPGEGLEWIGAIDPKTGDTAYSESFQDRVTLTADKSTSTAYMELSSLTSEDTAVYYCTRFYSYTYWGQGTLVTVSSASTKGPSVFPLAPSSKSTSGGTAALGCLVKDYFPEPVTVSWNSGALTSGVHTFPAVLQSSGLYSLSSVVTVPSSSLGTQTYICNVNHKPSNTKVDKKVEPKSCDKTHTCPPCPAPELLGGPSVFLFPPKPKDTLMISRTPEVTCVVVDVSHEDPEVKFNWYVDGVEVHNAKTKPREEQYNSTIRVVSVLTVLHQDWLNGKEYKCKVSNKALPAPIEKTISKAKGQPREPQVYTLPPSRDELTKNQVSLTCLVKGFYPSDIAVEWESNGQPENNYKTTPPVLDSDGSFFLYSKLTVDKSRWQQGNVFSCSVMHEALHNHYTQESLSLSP
light: B1 light
notes: Anti-glypican-3 IgG1 (G1d with K439E); the alteration stands in both H chains; EU numbering; also called Y300_07I Ho Ab; Y300I in both H chains
- Ho/Con_2aH [4]: 122 relative binding activity (control homodimerized antibody GpH7-B3/GpL16-k0 = 100)

B7: GpH7-A5/GpH7-B3 variant N325_07I/GpL16-k0 (antibody, human IgG1, kappa)
heavy 1: not shown
heavy 2: not shown
light: B1 light
notes: as for B1
- He_2aH/2b (IIaH/IIb) [1]: 0.22 ratio
- He/Con_2aH [2]: 38.1 % of HeCon Ab (=100)
- He/Con_2b [3]: 171 % of HeCon Ab (=100)

B8: GpH7-B3 variant T335_05P/GpL16-k0 (homodimerized antibody, Ho Ab) (antibody, human IgG1, kappa)
heavy: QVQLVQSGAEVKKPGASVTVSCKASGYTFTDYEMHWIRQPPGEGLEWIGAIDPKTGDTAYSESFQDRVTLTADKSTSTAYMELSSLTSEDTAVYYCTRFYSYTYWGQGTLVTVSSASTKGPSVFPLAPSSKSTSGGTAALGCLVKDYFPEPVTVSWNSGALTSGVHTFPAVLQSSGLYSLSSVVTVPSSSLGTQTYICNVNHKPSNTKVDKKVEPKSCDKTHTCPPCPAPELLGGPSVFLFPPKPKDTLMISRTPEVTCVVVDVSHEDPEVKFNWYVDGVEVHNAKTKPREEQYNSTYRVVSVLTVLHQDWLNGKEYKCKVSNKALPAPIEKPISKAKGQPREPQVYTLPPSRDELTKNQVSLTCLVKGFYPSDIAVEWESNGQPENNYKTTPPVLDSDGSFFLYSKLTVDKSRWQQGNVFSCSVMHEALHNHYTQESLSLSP
light: B1 light
notes: Anti-glypican-3 IgG1 (G1d with K439E); the alteration stands in both H chains; EU numbering; also called T335_05P Ho Ab; T335P in both H chains
- Ho/Con_2aH [4]: 115 relative binding activity (control homodimerized antibody GpH7-B3/GpL16-k0 = 100)

B9: GpH7-B3 variant T335_09D/GpL16-k0 (homodimerized antibody, Ho Ab) (antibody, human IgG1, kappa)
heavy: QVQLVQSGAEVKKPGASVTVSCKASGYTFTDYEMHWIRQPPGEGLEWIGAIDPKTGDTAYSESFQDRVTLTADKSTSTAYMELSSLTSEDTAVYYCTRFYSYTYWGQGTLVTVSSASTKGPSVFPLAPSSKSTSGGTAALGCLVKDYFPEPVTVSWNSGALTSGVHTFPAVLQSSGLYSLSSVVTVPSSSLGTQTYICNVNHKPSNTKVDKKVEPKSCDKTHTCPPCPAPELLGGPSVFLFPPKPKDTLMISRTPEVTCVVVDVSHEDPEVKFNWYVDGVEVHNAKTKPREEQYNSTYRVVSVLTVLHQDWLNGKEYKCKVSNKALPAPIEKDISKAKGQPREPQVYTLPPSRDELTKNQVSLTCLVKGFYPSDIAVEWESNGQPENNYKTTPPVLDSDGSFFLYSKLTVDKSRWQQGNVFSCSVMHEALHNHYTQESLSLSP
light: B1 light
notes: Anti-glypican-3 IgG1 (G1d with K439E); the alteration stands in both H chains; EU numbering; also called T335_09D Ho Ab; T335D in both H chains
- Ho/Con_2aH [4]: 110 relative binding activity (control homodimerized antibody GpH7-B3/GpL16-k0 = 100)

B10: GpH7-A5/GpH7-B3 variant Y300_06M/GpL16-k0 (heterodimerized antibody, He Ab) (antibody, human IgG1, kappa)
heavy 1: not shown
heavy 2: not shown
light: B1 light
notes: Anti-glypican-3 IgG1 heterodimer; the alteration stands in one H chain only; EU numbering; also called Y300_06M He Ab; Y300M in one H chain
- He/Con_2aH [4]: 105 relative binding activity (control heterodimerized antibody GpH7-A5/GpH7-B3/GpL16-k0 = 100)

B11: GpH7-B3 variant T335_08L/GpL16-k0 (homodimerized antibody, Ho Ab) (antibody, human IgG1, kappa)
heavy: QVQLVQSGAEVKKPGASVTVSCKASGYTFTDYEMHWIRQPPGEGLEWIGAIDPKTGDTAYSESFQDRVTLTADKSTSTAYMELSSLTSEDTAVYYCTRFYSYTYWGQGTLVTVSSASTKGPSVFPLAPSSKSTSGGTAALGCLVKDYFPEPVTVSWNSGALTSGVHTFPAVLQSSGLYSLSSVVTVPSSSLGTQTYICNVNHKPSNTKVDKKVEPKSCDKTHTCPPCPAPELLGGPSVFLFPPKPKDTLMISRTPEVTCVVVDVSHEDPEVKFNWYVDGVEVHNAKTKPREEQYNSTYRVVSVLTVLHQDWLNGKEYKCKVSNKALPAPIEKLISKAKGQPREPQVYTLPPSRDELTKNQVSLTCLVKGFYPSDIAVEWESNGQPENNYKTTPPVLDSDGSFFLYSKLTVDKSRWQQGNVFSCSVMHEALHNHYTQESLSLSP
light: B1 light
notes: Anti-glypican-3 IgG1 (G1d with K439E); the alteration stands in both H chains; EU numbering; also called T335_08L Ho Ab; T335L in both H chains
- Ho/Con_2aH [4]: 106 relative binding activity (control homodimerized antibody GpH7-B3/GpL16-k0 = 100)

B12: GpH7-A5/GpH7-B3 variant T335_05P/GpL16-k0 (heterodimerized antibody, He Ab) (antibody, human IgG1, kappa)
heavy 1: not shown
heavy 2: not shown
light: B1 light
notes: Anti-glypican-3 IgG1 heterodimer; the alteration stands in one H chain only; EU numbering; also called T335_05P He Ab; T335P in one H chain
- He/Con_2aH [4]: 108 relative binding activity (control heterodimerized antibody GpH7-A5/GpH7-B3/GpL16-k0 = 100)

B13: GpH7-A5/GpH7-B3 variant T335_08L/GpL16-k0 (heterodimerized antibody, He Ab) (antibody, human IgG1, kappa)
heavy 1: not shown
heavy 2: not shown
light: B1 light
notes: Anti-glypican-3 IgG1 heterodimer; the alteration stands in one H chain only; EU numbering; also called T335_08L He Ab; T335L in one H chain
- He/Con_2aH [4]: 106 relative binding activity (control heterodimerized antibody GpH7-A5/GpH7-B3/GpL16-k0 = 100)

B14: GpH7-A5/GpH7-B3 variant N325_09D/GpL16-k0 (antibody, human IgG1, kappa)
heavy 1: not shown
heavy 2: not shown
light: B1 light
notes: as for B1
- He_2aH/2b (IIaH/IIb) [1]: 0.43 ratio
- He/Con_2aH [2]: 53.1 % of HeCon Ab (=100)
- He/Con_2b [3]: 124 % of HeCon Ab (=100)

B15: GpH7-B3 variant Y300_08L/GpL16-k0 (homodimerized antibody, Ho Ab) (antibody, human IgG1, kappa)
heavy: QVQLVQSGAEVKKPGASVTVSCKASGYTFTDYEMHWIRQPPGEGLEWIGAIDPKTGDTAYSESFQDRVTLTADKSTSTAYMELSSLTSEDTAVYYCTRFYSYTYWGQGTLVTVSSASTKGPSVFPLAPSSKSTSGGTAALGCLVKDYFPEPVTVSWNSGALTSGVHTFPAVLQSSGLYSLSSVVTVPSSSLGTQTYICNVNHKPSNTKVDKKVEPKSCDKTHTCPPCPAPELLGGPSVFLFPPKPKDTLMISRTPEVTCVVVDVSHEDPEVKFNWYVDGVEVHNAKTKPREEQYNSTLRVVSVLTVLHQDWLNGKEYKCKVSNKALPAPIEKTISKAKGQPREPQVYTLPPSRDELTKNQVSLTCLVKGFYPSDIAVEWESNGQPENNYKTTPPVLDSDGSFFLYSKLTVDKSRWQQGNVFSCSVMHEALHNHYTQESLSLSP
light: B1 light
notes: Anti-glypican-3 IgG1 (G1d with K439E); the alteration stands in both H chains; EU numbering; also called Y300_08L Ho Ab; Y300L in both H chains
- Ho/Con_2aH [4]: 115 relative binding activity (control homodimerized antibody GpH7-B3/GpL16-k0 = 100)

B16: GpH7-A5/GpH7-B3 variant N325_10E/GpL16-k0 (antibody, human IgG1, kappa)
heavy 1: not shown
heavy 2: not shown
light: B1 light
notes: as for B1
- He_2aH/2b (IIaH/IIb) [1]: 0.55 ratio
- He/Con_2aH [2]: 52.5 % of HeCon Ab (=100)
- He/Con_2b [3]: 95.9 % of HeCon Ab (=100)

B17: GpH7-A5/GpH7-B3 variant N325_06M/GpL16-k0 (antibody, human IgG1, kappa)
heavy 1: not shown
heavy 2: not shown
light: B1 light
notes: as for B1
- He_2aH/2b (IIaH/IIb) [1]: 0.22 ratio
- He/Con_2aH [2]: 48.2 % of HeCon Ab (=100)
- He/Con_2b [3]: 217 % of HeCon Ab (=100)

B18: GpH7-A5/GpH7-B3 variant T335_04F/GpL16-k0 (heterodimerized antibody, He Ab) (antibody, human IgG1, kappa)
heavy 1: not shown
heavy 2: not shown
light: B1 light
notes: Anti-glypican-3 IgG1 heterodimer; the alteration stands in one H chain only; EU numbering; also called T335_04F He Ab; T335F in one H chain
- He/Con_2aH [4]: 103 relative binding activity (control heterodimerized antibody GpH7-A5/GpH7-B3/GpL16-k0 = 100)

B19: GpH7-B3 variant T335_06M/GpL16-k0 (homodimerized antibody, Ho Ab) (antibody, human IgG1, kappa)
heavy: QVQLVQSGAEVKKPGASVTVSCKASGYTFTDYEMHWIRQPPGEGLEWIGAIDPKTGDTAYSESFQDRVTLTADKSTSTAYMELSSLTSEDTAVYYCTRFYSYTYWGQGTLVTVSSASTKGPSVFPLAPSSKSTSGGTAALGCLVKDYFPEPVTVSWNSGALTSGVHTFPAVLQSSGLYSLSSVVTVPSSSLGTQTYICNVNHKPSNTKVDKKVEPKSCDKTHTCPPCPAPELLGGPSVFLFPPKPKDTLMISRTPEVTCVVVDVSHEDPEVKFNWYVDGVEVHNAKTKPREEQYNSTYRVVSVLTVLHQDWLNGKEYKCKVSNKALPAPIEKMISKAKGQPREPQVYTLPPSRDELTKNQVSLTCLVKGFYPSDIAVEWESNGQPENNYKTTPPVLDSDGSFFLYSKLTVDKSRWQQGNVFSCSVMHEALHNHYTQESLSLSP
light: B1 light
notes: Anti-glypican-3 IgG1 (G1d with K439E); the alteration stands in both H chains; EU numbering; also called T335_06M Ho Ab; T335M in both H chains
- Ho/Con_2aH [4]: 106 relative binding activity (control homodimerized antibody GpH7-B3/GpL16-k0 = 100)

B20: GpH7-B3 variant Y300_06M/GpL16-k0 (homodimerized antibody, Ho Ab) (antibody, human IgG1, kappa)
heavy: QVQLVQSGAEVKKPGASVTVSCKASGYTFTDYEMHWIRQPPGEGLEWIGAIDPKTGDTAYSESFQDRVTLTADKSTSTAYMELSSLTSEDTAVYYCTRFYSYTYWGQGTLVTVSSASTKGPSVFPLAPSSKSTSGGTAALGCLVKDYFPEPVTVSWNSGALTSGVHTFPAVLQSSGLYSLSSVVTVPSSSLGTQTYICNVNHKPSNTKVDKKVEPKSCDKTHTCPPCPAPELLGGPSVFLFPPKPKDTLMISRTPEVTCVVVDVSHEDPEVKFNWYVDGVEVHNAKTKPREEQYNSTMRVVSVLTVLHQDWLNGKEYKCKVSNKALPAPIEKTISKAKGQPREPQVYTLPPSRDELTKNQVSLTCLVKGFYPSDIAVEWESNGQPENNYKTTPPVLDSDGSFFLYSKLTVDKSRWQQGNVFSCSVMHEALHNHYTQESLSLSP
light: B1 light
notes: Anti-glypican-3 IgG1 (G1d with K439E); the alteration stands in both H chains; EU numbering; also called Y300_06M Ho Ab; Y300M in both H chains
- Ho/Con_2aH [4]: 106 relative binding activity (control homodimerized antibody GpH7-B3/GpL16-k0 = 100)

B21: GpH7-A5/GpH7-B3 variant N325_05P/GpL16-k0 (antibody, human IgG1, kappa)
heavy 1: not shown
heavy 2: not shown
light: B1 light
notes: as for B1
- He_2aH/2b (IIaH/IIb) [1]: 0.8 ratio
- He/Con_2aH [2]: 20.7 % of HeCon Ab (=100)
- He/Con_2b [3]: 26 % of HeCon Ab (=100)

B22: GpH7-A5/GpH7-B3 variant Y300_07I/GpL16-k0 (heterodimerized antibody, He Ab) (antibody, human IgG1, kappa)
heavy 1: not shown
heavy 2: not shown
light: B1 light
notes: Anti-glypican-3 IgG1 heterodimer; the alteration stands in one H chain only; EU numbering; also called Y300_07I He Ab; Y300I in one H chain
- He/Con_2aH [4]: 108 relative binding activity (control heterodimerized antibody GpH7-A5/GpH7-B3/GpL16-k0 = 100)

B23: GpH7-A5/GpH7-B3 variant N325_08L/GpL16-k0 (antibody, human IgG1, kappa)
heavy 1: not shown
heavy 2: not shown
light: B1 light
notes: as for B1
- He_2aH/2b (IIaH/IIb) [1]: 0.26 ratio
- He/Con_2aH [2]: 52 % of HeCon Ab (=100)
- He/Con_2b [3]: 197 % of HeCon Ab (=100)

B24: GpH7-A5/GpH7-B3 variant T335_06M/GpL16-k0 (heterodimerized antibody, He Ab) (antibody, human IgG1, kappa)
heavy 1: not shown
heavy 2: not shown
light: B1 light
notes: Anti-glypican-3 IgG1 heterodimer; the alteration stands in one H chain only; EU numbering; also called T335_06M He Ab; T335M in one H chain
- He/Con_2aH [4]: 103 relative binding activity (control heterodimerized antibody GpH7-A5/GpH7-B3/GpL16-k0 = 100)

B25: GpH7-A5/GpH7-B3 variant Y300_08L/GpL16-k0 (heterodimerized antibody, He Ab) (antibody, human IgG1, kappa)
heavy 1: not shown
heavy 2: not shown
light: B1 light
notes: Anti-glypican-3 IgG1 heterodimer; the alteration stands in one H chain only; EU numbering; also called Y300_08L He Ab; Y300L in one H chain
- He/Con_2aH [4]: 108 relative binding activity (control heterodimerized antibody GpH7-A5/GpH7-B3/GpL16-k0 = 100)
